Laboratory results reported in PMC4383501, “Computational Selection of RNA Aptamer against Angiopoietin-2 and Experimental Evaluation”.

What was measured:
[1] = target: T1, Angiopoietin-2 (Ang2), active human (human, UniProt O15123 19-496); assay: SPR; kon 4.07e3 M-1s-1; koff 0.79e-3 s-1; SPR imaging, biotinylated RNA on streptavidin/BAT-PEG chip, 0.5 uM Ang2 in TBS pH 7.4, 9 min association, 6 min TBS rinse; temperature not stated; conditions: protein: commercial; label: 5' biotin; single strand
[2] = target: T1, Angiopoietin-2 (Ang2), active human; assay: SPR; kon 10.02e3 M-1s-1; koff 1.39e-3 s-1; SPR imaging, biotinylated RNA on streptavidin/BAT-PEG chip, 0.5 uM Ang2 in TBS pH 7.4, 9 min association, 6 min TBS rinse; temperature not stated; conditions: protein: commercial; label: 5' biotin; single strand
Angiopoietin-2 (human) = Angiopoietin-2 (human) (Homo sapiens (Human), UniProt O15123 19-496); assay: SPR; TBS pH 7.4, 25 C; conditions: label: 5'-biotin (5'-A5 is a spacer)
[3] = target: T1, Angiopoietin-2 (Ang2), active human; assay: SPR; kon 1.66e3 M-1s-1; koff 4.99e-3 s-1; described as very weak, partly nonspecific adsorption; SPR imaging, biotinylated RNA on streptavidin/BAT-PEG chip, 0.5 uM Ang2 in TBS pH 7.4, 9 min association, 6 min TBS rinse; temperature not stated; conditions: protein: commercial; label: 5' biotin; single strand
[4] = target: T1, Angiopoietin-2 (Ang2), active human; assay: SPR; kon 6.03e3 M-1s-1; koff 0.61e-3 s-1; SPR imaging, biotinylated RNA on streptavidin/BAT-PEG chip, 0.5 uM Ang2 in TBS pH 7.4, 9 min association, 6 min TBS rinse; temperature not stated; conditions: protein: commercial; label: 5' biotin; single strand
[5] = target: T1, Angiopoietin-2 (Ang2), active human; assay: SPR; kon 8.22e3 M-1s-1; koff 0.97e-3 s-1; SPR imaging, biotinylated RNA on streptavidin/BAT-PEG chip, 0.5 uM Ang2 in TBS pH 7.4, 9 min association, 6 min TBS rinse; temperature not stated; conditions: protein: commercial; label: 5' biotin; single strand

T1 sequence (O15123 19-496): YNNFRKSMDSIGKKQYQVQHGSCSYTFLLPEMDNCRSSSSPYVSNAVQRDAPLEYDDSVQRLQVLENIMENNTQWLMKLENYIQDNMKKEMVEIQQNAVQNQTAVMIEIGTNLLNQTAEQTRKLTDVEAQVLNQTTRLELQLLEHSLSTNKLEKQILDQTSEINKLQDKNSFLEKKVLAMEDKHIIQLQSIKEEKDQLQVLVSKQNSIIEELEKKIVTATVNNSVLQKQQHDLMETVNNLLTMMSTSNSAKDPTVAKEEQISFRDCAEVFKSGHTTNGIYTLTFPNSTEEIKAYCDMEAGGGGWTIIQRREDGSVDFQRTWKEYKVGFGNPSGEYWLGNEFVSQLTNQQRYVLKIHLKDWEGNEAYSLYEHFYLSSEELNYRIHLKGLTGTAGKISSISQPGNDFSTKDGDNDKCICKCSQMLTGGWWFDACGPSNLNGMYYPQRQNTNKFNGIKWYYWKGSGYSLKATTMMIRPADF
Sequence of Angiopoietin-2 (human) (O15123 19-496): as above

AAAAAUUAACCAUCAGAUCAUGGCCCCUGCCCUCUCAAGCACCAC (ssRNA) [Seq2_12_35 (biotin-A5)] was tested, and the Ka [1] was 5.15 10^6 M^-1.

In the case of AAAAAACUAGCCUCAUCAGCUCAUGUGCCCCUCCGCCUGGAUCAC (ssRNA) [Seq1 (biotin-A5)], the Ka [2] is reported as 7.23 10^6 M^-1.

For AAAAAACUAGCCUCAUCAGCUCAUGUGCCCCUCCGCCUGGAUCAC (ssRNA) [Seq1], the Kd (Angiopoietin-2 (human)) was 138 nM.

AAAAAACUCGAACAUUUCCACUAACCAACCAUACUAAAGCACCGC (ssRNA) [Seq16 (biotin-A5), Ang1-specific aptamer] was tested, and the Ka [3] was 0.33 10^6 M^-1.

AAAAAACUCGAACAUUUCCACUAACCAACCAUACUAAAGCACCGC (ssRNA) [Seq16 (Ang1 aptamer / negative control)] was tested, and the Kd (Angiopoietin-2 (human)) was 3030 nM.

For AAAAAGAGGACGAUGCCGACUAGCCUCAUCAGCUCAUGUCCCCCUC (ssRNA) [Seq15_12_35 (biotin-A5)], the Ka [4] was 9.89 10^6 M^-1.

For AAAAAGAGGACGAUGCGGAUUAGCCUCAUCAGCUCAUGUGCCGCUC (ssRNA) [Seq15_15_38 (biotin-A5)], the Ka [5] was 8.47 10^6 M^-1.
